Assay [1] concerns the target aggregated Aβ42 (heterogeneous Aβ 42 aggregate mixture). Description: competition ELISA; FIG 20A. (ELISA stands for enzyme-linked immunosorbent assay.)
Assay [2] has the same target. Description: competition ELISA; FIG 5A; competition with HBP biotin.
Assay [3] has the same target. Description: competition ELISA; FIG 20B.
Assay [4] has the same target. Description: competition ELISA; FIG 5B; competition with HBP biotin.

Substitutions are numbered along the chain they refer to.

aggregated Aβ42 (heterogeneous Aβ 42 aggregate mixture), sequence (P05067 672-713): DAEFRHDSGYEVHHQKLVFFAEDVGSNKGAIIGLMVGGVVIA

B1: h2731 (antibody, V domains shown)
VH: EVQLLESGGGLVQPGGSLRLSCAASGFTFSNYGMSWVRQAPGKGLEWVASIRSGSGRTYYSDNVKGRFTISRDNSKNTLYLQMNSLRAEDTAVYYCVRYDHYSGSSDYWGQGTLVTVSS
VL: DVVMTQSPLSLPVTLGEPASISCKSSQSLLDYDGKTYLNWLLQKPGQSPQRLIYRVTNRDTGVPDRFSGSGSGTDFTLKISRVEAEDVGVYYCWQGTHFPRSFGQGTKVEIK
One may read the IC50 as the concentration needed to halve the response being measured. Regarding B1, the IC50 in assay [1] amounted to 5 µg/mL; in assay [2], 4.76 µg/mL.

B2: h2831 (antibody, V domains shown)
VH: B1 VH with Y32F, I51V, S105T
VL: B1 VL
As to B2, the IC50 in assay [3] was determined as 9.9 µg/mL; in assay [4], 9.02 µg/mL.

B3: h2726 (antibody, V domains shown)
VH: B1 VH
VL: B1 VL with L15P, R55K, T57S, T61S, S102T
As for B3, the values for the IC50 in assay [3] and in assay [4] were 9 µg/mL and 8.41 µg/mL, respectively.

B4: h2931 (antibody, V domains shown)
VH: B1 VH with Y32F, I51V, S103T, S105T
VL: B1 VL
For the molecule B4, the IC50 in assay [2] turned out to be 6.27 µg/mL.

The record behind these values is US20230331828A1 (published 2023).
